The target in assay [1] is T1, rat liver membranes (glucagon receptor) (Rattus norvegicus, UniProt P30082).
T1 construct: Two batches of liver membranes were each prepared from approximately 80 gm of liver; from tissue; host or cells: rat liver membranes
Kind of assay: Competition binding / Scatchard analysis with ^125 I-glucagon on rat liver membranes. Conditions: 30 minutes at 30° C., read-out: apparent Kd. On the procedure: Membranes from the pLJ4 BHK transfectants were compared with rat liver membrane preparations for the ability to bind ^125 I-glucagon. Membranes were prepared essentially described by Rodbell et al. (J. Biol Chem. 246:1861-1871, 1971, which is incorporated by reference herein in its entirety). Two batches of liver membranes were each prepared from approximately 80 gm of liver from 12 to 16 decapitated young female rats. The livers were removed quickly and placed into an iced beaker. The livers were separated into ten-gram portions. The portions were minced with scissors, and connective tissue was removed during the mincing procedure. The portions were separately homogenized in a Dounce homogenizer. […] The concentration of the solution was adjusted to 44.0%+/-0.1% using 69% sucrose or water as measured by a refractometer (Bausch & Lomb, Rochester, N.Y.). […]
The supernatant was carefully decanted and discarded. […] The absorbance was read in 1 cm cuvettes to determine protein concentration. Protein concentration was determined using the formula: [formula] […]
To each tube 100 μl of 2× binding buffer; 20 μl of ^125 I-glucagon (Amersham); 20 μl of 1 mM NaHCO3; 20 μl 10 mM HOAc, 0.5% BSA (Novo Nordisk N/A, Bagsvaerd, Denmark); and 40 μl of distilled water were added. […] The supernatants from each sample were aspirated, and the pellets were counted.

For assay [2], the target named is rat glucagon receptor (pLJ4 transfectants) (Rattus norvegicus, UniProt P30082). Put plainly: Intracellular calcium response (fura-2 imaging) of pLJ4 BHK transfectants. The conditions noted are these: 100 nM final glucagon; resting value approximately 150 nM; from calibration experiments. It counts as cell-based. On the procedure: E. Intracellular Calcium Concentration Determination
Chain of rat glucagon receptor (pLJ4 transfectants) (P30082 27-485): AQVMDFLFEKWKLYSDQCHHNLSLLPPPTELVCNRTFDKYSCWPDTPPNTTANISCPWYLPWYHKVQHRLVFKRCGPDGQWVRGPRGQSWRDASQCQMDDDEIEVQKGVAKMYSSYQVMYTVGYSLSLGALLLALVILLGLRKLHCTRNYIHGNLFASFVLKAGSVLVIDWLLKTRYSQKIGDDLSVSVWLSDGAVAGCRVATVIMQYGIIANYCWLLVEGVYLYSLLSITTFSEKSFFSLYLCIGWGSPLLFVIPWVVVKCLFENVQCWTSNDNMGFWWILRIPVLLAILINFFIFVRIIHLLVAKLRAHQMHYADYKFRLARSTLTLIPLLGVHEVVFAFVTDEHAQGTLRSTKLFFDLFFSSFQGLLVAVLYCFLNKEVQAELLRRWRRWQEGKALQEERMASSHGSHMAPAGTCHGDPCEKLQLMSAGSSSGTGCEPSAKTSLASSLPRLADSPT
Plasmid pLJ4 BHK transfectants seeded into 2 well coverglass chambers (NUNC) at 5×10^4 cells per chamber. The cells were grown for between one and three days under normal culture conditions in methotrexate selection medium. The medium was removed by aspiration, and the chambers were rinsed twice with 1 ml Imaging Buffer (Table 3). The cells were incubated for 30 minutes in the dark at room temperature with 0.5 ml of Fura-2 AM Solution (Table 3). After incubation, the Fura-2 AM Solution was removed, and the cells were rinsed with 1 ml Imaging Buffer three times. After the final rinse, 0.5 ml of buffer was left in each chamber. […]
Imaging was performed on a Nikon Diaphot inverted fluorescence microscope equipped with a mercury arc lamp and 10× and 40× Nikon Fluor dry objective lenses. Experiments were controlled and analysed using a Sun SPARC II workstation and Inovision (Research Triangle Park, N.C.) RATIOTOOL software. […] Emission images were directed by a dichroic mirror (380 nm cutoff) to a Dage-MTI 72 CCD camera equipped with a Genesis II image intensifier and digitally recorded by the software.
Intracellular calcium concentration was monitored by calculating a ratio of emission intensities at each of the two excitation wavelenths (340/380) for each pixel of the digital microscopic image field (512×480 pixels). […]
(In general: Calcium assays in cells follow changes in intracellular calcium, usually with a dye or a luminescent sensor.)

pKd: −log10 of the molar value.

T1 sequence (P30082 27-485): as above

For orientation: pKd means −log10 of the Kd, conventionally taken in molar units. “glucagon: 29 amino acid hormone produced by the alpha cells of pancreatic islets; human glucagon (Sigma)”: the negative logarithm of the Kd (pKd) in assay [1] is 7.31. In assay [2], the “peak intracellular calcium concentration” value is “approximately 400 nM”.

The record behind these values is US5919635A (ZymoGenetics, Inc., priority 1995, dated 1999).
